Test results: article PMC9694015

Legend:
[1] = molecular target: bacterial chalcone isomerase (CHI) from Eubacterium ramulus (Eubacterium ramulus) (UniProt V9P0A9); experiment: crystal structure; hanging drop at 293 K, 6.8 mg/mL protein in 50 mM sodium phosphate pH 6.8; reservoir ammonium sulphate (1.8 M for CHI, 1.5 M for CHI_H33A), 0.2 M NaCl, 0.1 M HEPES pH 7.5; crystals soaked 10 min with 2.5 mM (+)-taxifolin; data at 100 K; hexamer seen in the asymmetric unit
[2] = molecular target: bacterial chalcone isomerase (CHI) from Eubacterium ramulus, His33Ala variant (Eubacterium ramulus) (UniProt V9P0A9); experiment: as above

stoichiometry N [1] | stoichiometry N [2] | Substance
6 | – | bacterial chalcone isomerase (CHI) from Eubacterium ramulus (from UniProt V9P0A9 1-283) (enzyme)
– | 6 | bacterial chalcone isomerase (CHI) from Eubacterium ramulus, His33Ala variant (from UniProt V9P0A9 1-283) (enzyme)
